Data reported in the DeepSol protein solubility set.

experiment: soluble on expression in E. coli; label from the status in PepcDB or PDB records

Sequence | soluble on expression in E. coli
MGSDKIHHHHHHMELQLQNLALSFKNKPNVIHDISLTMNGGSIVGIVAPNGTGKTTLLRLILNDLKPQAGKVLVDGKSYGSQKQSLALHRQMCLFPVQDDLYPDLSGKAHLEYYAKLWHNRSKSVKQIINVLDMRDYINQPVRTYSMGMKQRLCFGMVMAANTPIMLLDEFMNGLDTINVARMSRILRGLRAEGKLIITVSHLLNNLQGYADLIYFMRDGKIIKTIDQHEQQPLYVQVAEENASRLPRMPWEHYPNGMLVLPIQKLPGEHFNQLLLGLAAHHIPFKLGPLDLDTYFNEFYETDQ | not soluble
MSLRIQDGTMRYTYKGVPTYKNPFDLALYQMLLWQQKPRTLIEIGSKWGGSALWFADMMCSFGVDCVIHSIDITPPSISVPGVTFHRGDGRDLAATLPADLMESLPRPIFVIEDADHHCETTLAVLRFFDRWLVAGEYIAVEDGIVDDLYGPEFVARLMGGPRRAVELFLRDRGQNYEIDTGLCDHFGTNVTWNVNGYLRRVREGHHHHHH | not soluble
MGSDKIHHHHHHMFHTIDFSDIFSSDYSNKISFKKGEIIHSYRDYEEKTPQIGAILEGTAVLEGPTNEGRWMINALIGQHSLFGMESLLETKTAPELTEYRVRALENGTVLFIDREFLLNYLYANPQFFHLILDEVIVRYLFTSKNYKNINQAPIVKVTRILVEIIELLHLHQTEGAIELPVYVTQTFLADYCRSSRARVTEVLEELRESGLLLSKKPITISSHENLLNQIDSFQTGNGLLTR | not soluble
MCMPRYTQPKKTWFYPVNFKIKAVELSLRNDMLSKDVAQALDIHPLMLSRWRKEYREGKFKKNQHYQSNSELMSKIPTKKELNKIKQLQKENDRLKMENDLLKKWQRYLAEVHQSDLDSSKNTKKPLEHHHHHH | soluble
MGSDKIHHHHHHMTWQVWRLGGLAITMVASLLLLDACSRDKAPVQIRSAVSQLPQTLDPRYATDAASARVNRLIYRSLVDFDVHARPAPSLASWRVLSPRLFRFTLGRHGRDFHDGRYLTAEDVAATYQSVIELADSPHAAEFANISKIEVRDENTLDFFLHDADSNFPARLILGILPAELIARQHDFSREPVGSGPFKFVSWQRSLKLERRSDKKRFVFEEVRDPTVRVLKLVRGEADILQGDLPPELVNYLKQQPGIDVQESEGSNFAYIGLNLQDDVLRNPLVRQALAHAIDRESIIKHALVGHSRLAESILPPEHWAGNGNLKPYEYNPVLARELLLRAGVSLPLKLVYKTSTDAQRVRLATMMQAQMRDAGIQLEIRSLDWGTFFDDIKRGNFQLYGLMWVGIKTPEIYHHAFHSSSVPPKGANRGHYADPKTDELIAVSDWASVAERVHAQLPYIPLWYEGQFAATRDHIKGYSLQPDGSWDGLVDVKRSKLKSVFPGRNQSAGM | not soluble
MFITFEGIDGSGKSTQIQLLAQYLEKRGKKVILKREPGGTETGEKIRKILLEEEVTPKAELFLFLASRNLLVTEIKQYLSEGYAVLLDRYTDSSVAYQGFGRNLGKEIVEELNDFATDGLIPDLTFYIDVDVETALKRKGELNRFEKREFLERVREGYLVLAREHPERIVVLDGKRSIEEIHRDVVREVKRRWKLDV | soluble
MKTRDRILECSLLLFNEQGEPNVSTLEIANELGISPGNLYYHFHGKEPLVMALFERFQAELAPLLDPPEEVRLGAEDYWLFLHLIVERLAHYRFLFQDLSNLTGRLPRLARGIRTWLGALKRTLATLLARLKADRQLRSDAPALGQLVEQITLTLLFSLDYQRVLGSKGEVRTVVYQIMMLVAPHLRSEAQRSAESLAQRYLGPE | not soluble
MQVPLNSADIDYAQFKDANGQEVLVIADGGKLKAFDGTKVYEIVPAPNESGYPANDLANINNKGLKGCVVHNTRVVIWDGSDTIWHSKIGYYDYFGQTDYQRFVRENDYVQTCVTFAGALLVFMRRHIGVLFGHDVEDWSQGFLDTQNGCINPKTVQTVTHPDGRQEVFYLSDNGVHAVYTIDTIEMDVSNRYSTRSVTEGLIDWKALGVTKDEWKRATAYFYDGRYWLIYPKGSEWRGLVYDTRLQAWFPINNVKANSFYHDEDYFYFAGDDGHLKVFDDTLYSDWNDKNKTSGTPINFYWYSKLLTPKLTGYDHFWDVLMIEAKQFPQKSALDVEVNTYLGRFTQEKAVKTASLVWGVTEWGEAQWQNPFLTEAVNNAKRLPTFLKGQYAQIKLSNNRDEPVEIYSLKYEVRLME | not soluble
